Experimental data published in the supplement of paper PMC12855868.

B1: library; numbered along this chain (parent)
chain: MAAAGGARLLRAASAVLGGPAGRWLHHAGSRAGSSGLLRNRGPGGSAEASRSLSVSARARSSSEDKITVHFINRDGETLTTKGKVGDSLLDVVVENNLDIDGFGACEGTLACSTCHLIFEDHIYEKLDAITDEENDMLDLAYGLTDRSRLGCQICLTKSMDNMTVRVPETVADARQSIDVGKTS

Variants of: B1
Assay: scaled log2 fold change in cell abundance, elesclomol vs control (0 = silent mean, 1 = nonsense mean) (scaled log2 ratio); higher = higher viability under elesclomol (loss of FDX1 cuproptosis function)
Conditions: glucose 10 mM
[1] = with ABC1 FDX1 KO, elesclomol 5 nM, 14 days
[2] = with HEK293T FDX1 KO, elesclomol 40 nM, 11 days
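Also: variant abundance is its share of total variant reads in each endpoint sample, from next-generation sequencing of the integrated ORF PCR-amplified out of genomic DNA.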

| Variant | scaled log2 fold change [1] | scaled log2 fold change [2] |
| --- | --- | --- |
| MAAAGGARLLRAASAVLGGPAGRWLHHAGSRAGSSGLLRNRGPGGSAEASRSLSVSARARSSSEDKITVHFINRDGETLTTKGKVGDSLLDVVVENNDDIDGFGACEGTLACSTCHLIFEDHIYEKLDAITDEENDMLDLAYGLTDRSRLGCQICLTKSMDNMTVRVPETVADARQSIDVGKTS | 0.341 | 0.871 |
| MAAAGGARLLRAASAVLGGPAGRWLHHAGSRAGSSGLLRNRGPGGSAEASRSLSVSARARSSSEDKITVHFINRDGETLTTKGKVGDSLLDVVVENNCDIDGFGACEGTLACSTCHLIFEDHIYEKLDAITDEENDMLDLAYGLTDRSRLGCQICLTKSMDNMTVRVPETVADARQSIDVGKTS | -0.21 | -0.505 |
| MAAAGGARLLRAASAVLGGPAGRWLHHAGSRAGSSGLLRNRGPGGSAEASRSLSVSARARSSSEDKITVHFINRDGETLTTKGKVGDSLLDVVVENNADIDGFGACEGTLACSTCHLIFEDHIYEKLDAITDEENDMLDLAYGLTDRSRLGCQICLTKSMDNMTVRVPETVADARQSIDVGKTS | -0.194 | -1.06 |
| MAAAGGARLLRAASAVLGGPAGRWLHHAGSRAGSSGLLRNRGPGGSAEASRSLSVSARARSSSEDKITVHFINRDGETLTTKGKVGDSLLDVVVENNEDIDGFGACEGTLACSTCHLIFEDHIYEKLDAITDEENDMLDLAYGLTDRSRLGCQICLTKSMDNMTVRVPETVADARQSIDVGKTS | 0.00205 | 0.172 |
| MAAAGGARLLRAASAVLGGPAGRWLHHAGSRAGSSGLLRNRGPGGSAEASRSLSVSARARSSSEDKITVHFINRDGETLTTKGKVGDSLLDVVVENVLDIDGFGACEGTLACSTCHLIFEDHIYEKLDAITDEENDMLDLAYGLTDRSRLGCQICLTKSMDNMTVRVPETVADARQSIDVGKTS | -0.176 | -0.221 |
| MAAAGGARLLRAASAVLGGPAGRWLHHAGSRAGSSGLLRNRGPGGSAEASRSLSVSARARSSSEDKITVHFINRDGETLTTKGKVGDSLLDVVVENYLDIDGFGACEGTLACSTCHLIFEDHIYEKLDAITDEENDMLDLAYGLTDRSRLGCQICLTKSMDNMTVRVPETVADARQSIDVGKTS | -0.364 | -0.135 |
| MAAAGGARLLRAASAVLGGPAGRWLHHAGSRAGSSGLLRNRGPGGSAEASRSLSVSARARSSSEDKITVHFINRDGETLTTKGKVGDSLLDVVVENTLDIDGFGACEGTLACSTCHLIFEDHIYEKLDAITDEENDMLDLAYGLTDRSRLGCQICLTKSMDNMTVRVPETVADARQSIDVGKTS | -0.0494 | 0.415 |
| MAAAGGARLLRAASAVLGGPAGRWLHHAGSRAGSSGLLRNRGPGGSAEASRSLSVSARARSSSEDKITVHFINRDGETLTTKGKVGDSLLDVVVENWLDIDGFGACEGTLACSTCHLIFEDHIYEKLDAITDEENDMLDLAYGLTDRSRLGCQICLTKSMDNMTVRVPETVADARQSIDVGKTS | 0.133 | -0.218 |
